Data: patent US20200040069A1 (INDIANA UNIVERSITY RESEARCH AND TECHNOLOGY, published 2020)

Biological target: T1, rat antibody hybridoma clone M7/1 (EMAP II neutralizing M7/1 antibody)
T1 construct: Rat monoclonal IgG from a hybridoma; also called rat monoclonal neutralizing antibody M7
Experiment: description in the sequence table

T1 sequence (VH, as listed by the source, chain 1 of 2): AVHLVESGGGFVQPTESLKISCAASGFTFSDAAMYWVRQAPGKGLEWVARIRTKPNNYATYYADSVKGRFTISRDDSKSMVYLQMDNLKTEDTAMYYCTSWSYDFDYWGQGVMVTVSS
T1 sequence (VL, as listed by the source, chain 2 of 2): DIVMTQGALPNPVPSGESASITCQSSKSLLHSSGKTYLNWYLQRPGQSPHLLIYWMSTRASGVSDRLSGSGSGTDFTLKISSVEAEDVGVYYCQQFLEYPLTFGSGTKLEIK

B1: Peptide 2 (QQSIAGSADSKPIDVSR) (peptide)
peptide: QQSIAGSADSKPIDVSR
notes: Synthetic peptide from human EMAP II; also called ID NO; 12
Q: Does B1 bind?
A: binds
